B1: library; numbered along this chain (parent)
chain: MAAAAAAAAEQQSSNGPVKKSMREKAVERRSVNKEHNSNFKAGYIPIDEDRLHKTGLRGRKGNLAICVIILLFILAVINLIITLVIWAVIRIGPNGCDSMEFHESGLLRFKQVSDMGVIHPLYKSTVGGRRNENLVITGNNQPIVFQQGTTKLSVENNKTSITSDIGMQFFDPRTQNILFSTDYETHEFHLPSGVKSLNVQKASTERITSNATSDLNIKVDGRAIVRGNEGVFIMGKTIEFHMGGNMELKAENSIILNGSVMVSTTRLPSSSSGDQLGSGDWVRYKLCMCADGTLFKVQVTSQNMGCQISDNPCGNTH

Variants of B1 are the subject of this data set. The data set can be described thus: SGCB cell-surface expression functional score (HA stain, bin4 vs bin1, normalised to synonymous) (log10 ratio); higher = more cell-surface SGCB (functional). A digest of the protocol: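 Using lentivirus at MOI <0.1, HA-tagged, YFP-fused human beta-sarcoglycan codon-saturation libraries were put into HEK293 cells with stable alpha-, gamma- and delta-sarcoglycan expression, in duplicate transductions. YFP-positive cells were collected by sorting 72 hours later, grown 5–7 days, stained on ice with Alexa Fluor 647 anti-HA, fixed, sorted into four 5% intensity bins and amplicon-sequenced. The functional score takes the median, across codons and transductions, of the log ratio of highest-bin to lowest-bin variant frequency. Within each section, synonymous variants were scaled to mean 0, SD 0.5.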
Take MAAAAAAAAEQQSSNGPVKKSMREKAVERRSVNKEHNSNFKAGYIPIDEDRLHKTGLRGRKGNLAICVIILLFILAVINLIITLVIWAVIRIGPNGCDSMEFHESGLLRFKQVSDMGVIHPLYKSTVGGRRNENLVITGNNQPIVFQQGTTKLSVENNKTSITSDIGMQFFDPRTQNILFSTDYETHEFHLPSGVKSLNVQKASTERITSNATSDLNIKVDGRAIVRGNEGVFIMGKTIEFHMGGNMELKAENSIILNGSVMVSTTRLPSSSSGDQLGSGAWVRYKLCMCADGTLFKVQVTSQNMGCQISDNPCGNTH [D281A]: the “SGCB cell-surface expression functional score (log10)” value was -0.2.
For MAAAAAAAAEQQSSNGPVKKSMREKAVERRSVNKEHNSNFKAGYIPIDEDRLHKTGLRGRKGNLAICVIILLFILAVINLIITLVIWAVIRIGPNGCDSMEFHESGLLRFKQVSDMGVIHPLYKSTVGGRRNENLVITGNNQPIVFQQGTTKLSVENNKTSITSDIGMQFFDPRTQNILFSTDYETHEFHLPSGVKSLNVQKASTERITSNATSDLNIKVDGRAIVRGNEGVFIMGKTIEFHMGGNMELKAENSIILNGSVMVSTTRLPSSSSGDQLGSPDWVRYKLCMCADGTLFKVQVTSQNMGCQISDNPCGNTH [G280P] the value was 0.06.
With MAAAAAAAAEQQSSNGPVKKSMREKAVERRSVNKEHNSNFKAGYIPIDEDRLHKTGLRGRKGNLAICVIILLFILAVINLIITLVIWAVIRIGPNGCDSMEFHESGLLRFKQVSDMGVIHPLYKSTVGGRRNENLVITGNNQPIVFQQGTTKLSVENNKTSITSDIGMQFFDPRTQNILFSTDYETHEFHLPSGVKSLNVQKASTERITSNATSDLNIKVDGRAIVRGNEGVFIMGKTIEFHMGGNMELKAENSIILNGSVMVSTTRLPSSSSGDQLGSSDWVRYKLCMCADGTLFKVQVTSQNMGCQISDNPCGNTH [G280S], the “SGCB cell-surface expression functional score (log10)” value came to 0.11.
MAAAAAAAAEQQSSNGPVKKSMREKAVERRSVNKEHNSNFKAGYIPIDEDRLHKTGLRGRKGNLAICVIILLFILAVINLIITLVIWAVIRIGPNGCDSMEFHESGLLRFKQVSDMGVIHPLYKSTVGGRRNENLVITGNNQPIVFQQGTTKLSVENNKTSITSDIGMQFFDPRTQNILFSTDYETHEFHLPSGVKSLNVQKASTERITSNATSDLNIKVDGRAIVRGNEGVFIMGKTIEFHMGGNMELKAENSIILNGSVMVSTTRLPSSSSGDQLGSQDWVRYKLCMCADGTLFKVQVTSQNMGCQISDNPCGNTH [G280Q]: the “SGCB cell-surface expression functional score (log10)” value was -0.26.
With MAAAAAAAAEQQSSNGPVKKSMREKAVERRSVNKEHNSNFKAGYIPIDEDRLHKTGLRGRKGNLAICVIILLFILAVINLIITLVIWAVIRIGPNGCDSMEFHESGLLRFKQVSDMGVIHPLYKSTVGGRRNENLVITGNNQPIVFQQGTTKLSVENNKTSITSDIGMQFFDPRTQNILFSTDYETHEFHLPSGVKSLNVQKASTERITSNATSDLNIKVDGRAIVRGNEGVFIMGKTIEFHMGGNMELKAENSIILNGSVMVSTTRLPSSSSGDQLGSVDWVRYKLCMCADGTLFKVQVTSQNMGCQISDNPCGNTH [G280V], the “SGCB cell-surface expression functional score (log10)” value turned out to be 0.01.
As to MAAAAAAAAEQQSSNGPVKKSMREKAVERRSVNKEHNSNFKAGYIPIDEDRLHKTGLRGRKGNLAICVIILLFILAVINLIITLVIWAVIRIGPNGCDSMEFHESGLLRFKQVSDMGVIHPLYKSTVGGRRNENLVITGNNQPIVFQQGTTKLSVENNKTSITSDIGMQFFDPRTQNILFSTDYETHEFHLPSGVKSLNVQKASTERITSNATSDLNIKVDGRAIVRGNEGVFIMGKTIEFHMGGNMELKAENSIILNGSVMVSTTRLPSSSSGDQLGSNDWVRYKLCMCADGTLFKVQVTSQNMGCQISDNPCGNTH [G280N], the “SGCB cell-surface expression functional score (log10)” value amounted to 0.37.
As to MAAAAAAAAEQQSSNGPVKKSMREKAVERRSVNKEHNSNFKAGYIPIDEDRLHKTGLRGRKGNLAICVIILLFILAVINLIITLVIWAVIRIGPNGCDSMEFHESGLLRFKQVSDMGVIHPLYKSTVGGRRNENLVITGNNQPIVFQQGTTKLSVENNKTSITSDIGMQFFDPRTQNILFSTDYETHEFHLPSGVKSLNVQKASTERITSNATSDLNIKVDGRAIVRGNEGVFIMGKTIEFHMGGNMELKAENSIILNGSVMVSTTRLPSSSSGDQLGSYDWVRYKLCMCADGTLFKVQVTSQNMGCQISDNPCGNTH [G280Y], the “SGCB cell-surface expression functional score (log10)” value is -0.23.
With MAAAAAAAAEQQSSNGPVKKSMREKAVERRSVNKEHNSNFKAGYIPIDEDRLHKTGLRGRKGNLAICVIILLFILAVINLIITLVIWAVIRIGPNGCDSMEFHESGLLRFKQVSDMGVIHPLYKSTVGGRRNENLVITGNNQPIVFQQGTTKLSVENNKTSITSDIGMQFFDPRTQNILFSTDYETHEFHLPSGVKSLNVQKASTERITSNATSDLNIKVDGRAIVRGNEGVFIMGKTIEFHMGGNMELKAENSIILNGSVMVSTTRLPSSSSGDQLGSWDWVRYKLCMCADGTLFKVQVTSQNMGCQISDNPCGNTH [G280W], the “SGCB cell-surface expression functional score (log10)” value was -0.37.
For the variant MAAAAAAAAEQQSSNGPVKKSMREKAVERRSVNKEHNSNFKAGYIPIDEDRLHKTGLRGRKGNLAICVIILLFILAVINLIITLVIWAVIRIGPNGCDSMEFHESGLLRFKQVSDMGVIHPLYKSTVGGRRNENLVITGNNQPIVFQQGTTKLSVENNKTSITSDIGMQFFDPRTQNILFSTDYETHEFHLPSGVKSLNVQKASTERITSNATSDLNIKVDGRAIVRGNEGVFIMGKTIEFHMGGNMELKAENSIILNGSVMVSTTRLPSSSSGDQLGSRDWVRYKLCMCADGTLFKVQVTSQNMGCQISDNPCGNTH [G280R], the “SGCB cell-surface expression functional score (log10)” value is -0.45.
On to MAAAAAAAAEQQSSNGPVKKSMREKAVERRSVNKEHNSNFKAGYIPIDEDRLHKTGLRGRKGNLAICVIILLFILAVINLIITLVIWAVIRIGPNGCDSMEFHESGLLRFKQVSDMGVIHPLYKSTVGGRRNENLVITGNNQPIVFQQGTTKLSVENNKTSITSDIGMQFFDPRTQNILFSTDYETHEFHLPSGVKSLNVQKASTERITSNATSDLNIKVDGRAIVRGNEGVFIMGKTIEFHMGGNMELKAENSIILNGSVMVSTTRLPSSSSGDQLGSTDWVRYKLCMCADGTLFKVQVTSQNMGCQISDNPCGNTH [G280T], for which the “SGCB cell-surface expression functional score (log10)” value was -0.11.
